The assay addresses Insulin (Sigma-Aldrich, 19278) (Homo sapiens (Human)) (UniProt P01308). Put plainly: NS-ELISA, plate coated with insulin, antibody at 100 nM.

Chain of Insulin (Sigma-Aldrich, 19278) (Homo sapiens (Human)) (P01308 25-54 limits assumed, chain 1 of 2): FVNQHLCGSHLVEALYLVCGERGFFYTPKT
Chain of Insulin (Sigma-Aldrich, 19278) (Homo sapiens (Human)) (P01308 90-110 limits assumed, chain 2 of 2): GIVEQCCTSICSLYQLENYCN

B1: v36180 (M3-H1L1) (antibody, human IgG1, kappa, V domains shown)
VH: EVQLVQSGAEVKKPGSSVKVSCKASGYTFTDYEMHWVRQAPGQGLEWIGAIDPETGDTAYNQKFKGRATLTADKSTSTAYMELSSLRSEDTAVYYCTRYFSFAYWGQGTLVTVSS
VL: DVQMTQSPSSVSASVGDRVTITCRSSQSLRHSNGNTYLQWYQQKPGKAPKLLIYKVSNRFSGVPSRFSGSGSGTDFTLTISSLQPEDFATYFCYQSKHVPYTFGQGTKVEIKR
In the case of B1, the NS-ELISA binding score (ratio to buffer well) was determined as 1.78.

B2: v37575 (codrituzumab) (antibody, human IgG1, kappa, V domains shown)
VH: QVQLVQSGAEVKKPGASVKVSCKASGYTFTDYEMHWVRQAPGQGLEWMGALDPKTGDTAYSQKFKGRVTLTADKSTSTAYMELSSLTSEDTAVYYCTRFYSYTYWGQGTLVTVSS
VL: DVVMTQSPLSLPVTPGEPASISCRSSQSLVHSNRNTYLHWYLQKPGQSPQLLIYKVSNRFSGVPDRFSGSGSGTDFTLKISRVEAEDVGVYYCSQNTHVPPTFGQGTKLEIKR
As for B2, the NS-ELISA binding score (ratio to buffer well) is 0.83.

(Values after patent US20250295799A1, “ANTIBODY-DRUG CONJUGATES TARGETING GLYPICAN-3 AND METHODS OF USE” (Zymeworks BC Inc., priority 2022, published 2025).)
